Assay results reported in US20140193430A1.
Blank lines part the entries; values can stand above or below the substance they belong to.

Columns and labels:
[1] = target: recombinant KIR2DL1 protein (entire extracellular domain, produced in E. coli, refolded) (human) (UniProt P43626); test: BIAcore competition on KIR2DL1 chip; first Ab EB6, second Ab (competitor) 1-7F9
[2] = target: recombinant KIR2DL1 protein (entire extracellular domain, produced in E. coli, refolded) (human) (UniProt P43626); test: BIAcore competition on KIR2DL1 chip; first Ab EB6, second Ab (competitor) EB6
[3] = target: recombinant KIR2DL1 protein (entire extracellular domain, produced in E. coli, refolded) (human) (UniProt P43626); test: BIAcore competition on KIR2DL1 chip; first Ab EB6, second Ab (competitor) 1-6F1
[4] = target: recombinant KIR2DL1 protein (entire extracellular domain, produced in E. coli, refolded) (human) (UniProt P43626); test: BIAcore, direct binding of second Ab to KIR2DL1 chip (field of first Ab EB6)
[5] = target: recombinant KIR2DL1 protein (entire extracellular domain, produced in E. coli, refolded) (human) (UniProt P43626); test: BIAcore competition on KIR2DL1 chip; first Ab EB6, second Ab (competitor) Pan2D
[6] = target: recombinant KIR2DL1 protein (entire extracellular domain, produced in E. coli, refolded) (human) (UniProt P43626); test: BIAcore competition on KIR2DL1 chip; first Ab EB6, second Ab (competitor) DF200
[7] = target: recombinant KIR2DL1 protein (entire extracellular domain, produced in E. coli, refolded) (human) (UniProt P43626); test: BIAcore, direct binding of second Ab to KIR2DL1 chip (field of first Ab 1-7F9)
[8] = target: recombinant KIR2DL1 protein (entire extracellular domain, produced in E. coli, refolded) (human) (UniProt P43626); test: BIAcore, second Ab on KIR2DL1 chip with first Ab (competitor) 1-6F1 bound
[9] = target: recombinant KIR2DL1 protein (entire extracellular domain, produced in E. coli, refolded) (human) (UniProt P43626); test: BIAcore, direct binding of second Ab to KIR2DL1 chip (field of first Ab 1-6F1)
[10] = target: recombinant KIR2DL1 protein (entire extracellular domain, produced in E. coli, refolded) (human) (UniProt P43626); test: BIAcore competition on KIR2DL1 chip; first Ab EB6, second Ab (competitor) 1-4F1
[11] = target: recombinant KIR2DL1 protein (entire extracellular domain, produced in E. coli, refolded) (human) (UniProt P43626); test: BIAcore, second Ab on KIR2DL1 chip with first Ab (competitor) 1-7F9 bound
[12] = target: recombinant KIR2DL1 protein (entire extracellular domain, produced in E. coli, refolded) (human) (UniProt P43626); test: BIAcore, second Ab on KIR2DL1 chip with first Ab (competitor) EB6 bound
[13] = target: recombinant KIR2DL3 protein (entire extracellular domain, produced in E. coli, refolded) (human) (UniProt P43628); test: BIAcore, direct binding of second Ab to KIR2DL3 chip (field of first Ab 1-7F9)
[14] = target: recombinant KIR2DL3 protein (entire extracellular domain, produced in E. coli, refolded) (human) (UniProt P43628); test: BIAcore competition on KIR2DL3 chip; first Ab Pan2D, second Ab (competitor) 1-6F1
[15] = target: recombinant KIR2DL3 protein (entire extracellular domain, produced in E. coli, refolded) (human) (UniProt P43628); test: BIAcore competition on KIR2DL3 chip; first Ab Pan2D, second Ab (competitor) gl183
immobilized KIR2DS1 [16] = target: immobilized KIR2DS1 (UniProt Q14954); test: BIAcore competition on KIR2DS1 chip; first Ab Pan2D, second Ab (competitor) DF200
[17] = target: recombinant KIR2DL3 protein (entire extracellular domain, produced in E. coli, refolded) (human) (UniProt P43628); test: BIAcore, second Ab on KIR2DL3 chip with first Ab (competitor) 1-4F1 bound
immobilized KIR2DS1 [18] = target: immobilized KIR2DS1 (UniProt Q14954); test: BIAcore, direct binding of second Ab to KIR2DS1 chip (field of first Ab 1-7F9)
[19] = target: recombinant KIR2DL3 protein (entire extracellular domain, produced in E. coli, refolded) (human) (UniProt P43628); test: BIAcore competition on KIR2DL3 chip; first Ab Pan2D, second Ab (competitor) 1-4F1
[20] = target: recombinant KIR2DL1 protein (entire extracellular domain, produced in E. coli, refolded) (human) (UniProt P43626); test: BIAcore, direct binding of second Ab to KIR2DL1 chip (field of first Ab 1-6F5)
[21] = target: recombinant KIR2DL1 protein (entire extracellular domain, produced in E. coli, refolded) (human) (UniProt P43626); test: BIAcore competition on KIR2DL1 chip; first Ab Pan2D, second Ab (competitor) DF200
immobilized KIR2DS1 [22] = target: immobilized KIR2DS1 (UniProt Q14954); test: BIAcore, second Ab on KIR2DS1 chip with first Ab (competitor) 1-7F9 bound
[23] = target: recombinant KIR2DL3 protein (entire extracellular domain, produced in E. coli, refolded) (human) (UniProt P43628); test: BIAcore, second Ab on KIR2DL3 chip with first Ab (competitor) 1-6F1 bound
[24] = target: recombinant KIR2DL1 protein (entire extracellular domain, produced in E. coli, refolded) (human) (UniProt P43626); test: BIAcore competition on KIR2DL1 chip; first Ab Pan2D, second Ab (competitor) 1-4F1
[25] = target: recombinant KIR2DL3 protein (entire extracellular domain, produced in E. coli, refolded) (human) (UniProt P43628); test: BIAcore, direct binding of second Ab to KIR2DL3 chip (field of first Ab 1-6F5)
[26] = target: recombinant KIR2DL1 protein (entire extracellular domain, produced in E. coli, refolded) (human) (UniProt P43626); test: BIAcore competition on KIR2DL1 chip; first Ab Pan2D, second Ab (competitor) EB6
[27] = target: recombinant KIR2DL3 protein (entire extracellular domain, produced in E. coli, refolded) (human) (UniProt P43628); test: BIAcore competition on KIR2DL3 chip; first Ab Pan2D, second Ab (competitor) 1-7F9
[28] = target: recombinant KIR2DL3 protein (entire extracellular domain, produced in E. coli, refolded) (human) (UniProt P43628); test: BIAcore competition on KIR2DL3 chip; first Ab Pan2D, second Ab (competitor) DF200
[29] = target: recombinant KIR2DL3 protein (entire extracellular domain, produced in E. coli, refolded) (human) (UniProt P43628); test: BIAcore, direct binding of second Ab to KIR2DL3 chip (field of first Ab 1-6F1)
immobilized KIR2DS1 [30] = target: immobilized KIR2DS1 (UniProt Q14954); test: BIAcore competition on KIR2DS1 chip; first Ab Pan2D, second Ab (competitor) 1-7F9
immobilized KIR2DS1 [31] = target: immobilized KIR2DS1 (UniProt Q14954); test: BIAcore competition on KIR2DS1 chip; first Ab Pan2D, second Ab (competitor) 1-4F1
[32] = target: recombinant KIR2DL3 protein (entire extracellular domain, produced in E. coli, refolded) (human) (UniProt P43628); test: BIAcore, second Ab on KIR2DL3 chip with first Ab (competitor) 1-7F9 bound
[33] = target: KIR2DL1(R131W)-hFc (human) (UniProt P43626); test: ELISA, KIR2DL1(R131W)-hFc captured via goat anti-human antibodies, mAb titrated, peroxidase anti-mouse, A450 [panel pan2D]
[34] = target: recombinant KIR2DL1 protein (entire extracellular domain, produced in E. coli, refolded) (human) (UniProt P43626); test: BIAcore competition on KIR2DL1 chip; first Ab Pan2D, second Ab (competitor) 1-6F5
[35] = target: recombinant KIR2DL1 protein (entire extracellular domain, produced in E. coli, refolded) (human) (UniProt P43626); test: BIAcore competition on KIR2DL1 chip; first Ab Pan2D, second Ab (competitor) 1-7F9
[36] = target: recombinant KIR2DL1 protein (entire extracellular domain, produced in E. coli, refolded) (human) (UniProt P43626); test: BIAcore competition on KIR2DL1 chip; first Ab Pan2D, second Ab (competitor) 1-6F1
[37] = target: recombinant KIR2DL3 protein (entire extracellular domain, produced in E. coli, refolded) (human) (UniProt P43628); test: BIAcore, second Ab on KIR2DL3 chip with first Ab (competitor) 1-6F5 bound
[38] = target: recombinant KIR2DL3 protein (entire extracellular domain, produced in E. coli, refolded) (human) (UniProt P43628); test: BIAcore, direct binding of second Ab to KIR2DL3 chip (field of first Ab 1-4F1)
[39] = target: recombinant KIR2DL3 protein (entire extracellular domain, produced in E. coli, refolded) (human) (UniProt P43628); test: BIAcore competition on KIR2DL3 chip; first Ab Pan2D, second Ab (competitor) 1-6F5
[40] = target: recombinant KIR2DL1 protein (entire extracellular domain, produced in E. coli, refolded) (human) (UniProt P43626); test: BIAcore, second Ab on KIR2DL1 chip with first Ab (competitor) 1-6F5 bound

% inhibition of second Ab binding by first Ab [1]: 65% | % inhibition of second Ab binding by first Ab [2]: 57% | % inhibition of second Ab binding by first Ab [3]: 23% | RU, direct binding (RU1) [4]: 460 RU | % inhibition of second Ab binding by first Ab [5]: 40% | % inhibition of second Ab binding by first Ab [6]: 60% | RU, direct binding (RU1) [7]: 460 RU | RU, binding with first Ab present (RU2) [8]: 320 RU | RU, direct binding (RU1) [9]: 260 RU | % inhibition of second Ab binding by first Ab [10]: 48% | RU, binding with first Ab present (RU2) [11]: 180 RU | RU, binding with first Ab present (RU2) [12]: 200 RU
Substance: EB6 (IgG1 anti KIR2DL1) (antibody)

RU, direct binding (RU1) [13]: 870 RU | % inhibition of second Ab binding by first Ab [14]: 8% | % inhibition of second Ab binding by first Ab [15]: 85% | % inhibition of second Ab binding by first Ab (immobilized KIR2DS1 [16]): 100% | RU, binding with first Ab present (RU2) [17]: 890 RU | RU, direct binding (RU1) (immobilized KIR2DS1 [18]): 1350 RU | % inhibition of second Ab binding by first Ab [19]: 68% | RU, direct binding (RU1) [20]: 475 RU | % inhibition of second Ab binding by first Ab [21]: 90% | RU, binding with first Ab present (RU2) (immobilized KIR2DS1 [22]): 1200 RU | RU, binding with first Ab present (RU2) [23]: 1090 RU | % inhibition of second Ab binding by first Ab [24]: 95% | RU, direct binding (RU1) [25]: 990 RU | % inhibition of second Ab binding by first Ab [26]: 90% | % inhibition of second Ab binding by first Ab [27]: 15% | % inhibition of second Ab binding by first Ab [28]: 95% | RU, direct binding (RU1) [29]: 990 RU | % inhibition of second Ab binding by first Ab (immobilized KIR2DS1 [30]): 45% | RU, direct binding (RU1) [7]: 545 RU | RU, binding with first Ab present (RU2) [8]: 440 RU | % inhibition of second Ab binding by first Ab (immobilized KIR2DS1 [31]): 100% | RU, binding with first Ab present (RU2) [32]: 830 RU | EC50 (read off the curve) [33]: 20 nM | RU, direct binding (RU1) [9]: 475 RU | % inhibition of second Ab binding by first Ab [34]: 13% | % inhibition of second Ab binding by first Ab [35]: 2% | % inhibition of second Ab binding by first Ab [36]: 12% | RU, binding with first Ab present (RU2) [37]: 950 RU | RU, direct binding (RU1) [38]: 2400 RU | % inhibition of second Ab binding by first Ab [39]: 18% | RU, binding with first Ab present (RU2) [11]: 534 RU | RU, binding with first Ab present (RU2) [40]: 440 RU
Substance: monoclonal antibody NKVSF1
